# Test results: the supplement of paper PMC7877785
# ± gives the uncertainty stated by the source.
# Assay: self-splicing fitness, log relative to wild type (ln ratio); higher = more splicing; Tetrahymena group I intron in knt gene, E. coli kanamycin selection, DiMSum; sequences stand for … in CUCUCU…GGAGGGAAAAGUUAUCAGGCAUGCACCUGGUAGCUAGUCUUUAAACCAAUAGAUUGCAUCGGUUUAAAAGGCAAGACCGUCAAAUUGCGGGAAAGGGGUCAACAGCCGUUCAGUACCAAGUCUCAGGGGAAACUUUGAGAUGGCCUUGCAAAGGGUAUGGUAAUAAGCUGACGGACAUGGUCCUAACCACGCAGCCAAGUCCUAAGUCAACAGAUCUUCUGUUGAUAUGGAUGCAGUUCACAGACUAAAUGUCGGUCGGGGAAGAUGUAUUCUUCUCAUAAGAUAUAGUCGGACCUCUCCUUAAUGGGAGCUAGCGGAUGAAGUGAUGCAACACUGGAGCCGCUGGGAACUAAUUUGUAUGCGAAAGUAUAUUGAUUAGUUUUGGAGUACUCGUGGUCG
# Method in brief: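 Pooled colonies went to amplicon sequencing on an Illumina HiSeq 2500 after six replicate transformations. The plates were LB agar with 100 μg/mL carbenicillin, 50 μM IPTG and 0.2% rhamnose, with or without 25 μg/mL kanamycin, incubated overnight at 37°C or 30°C. The E. coli BL21(DE3) library had all eight P1ex-region intron nucleotides randomised, the intron placed in the knt kanamycin-resistance gene on pET-22b(+). DiMSum fitness is the error-weighted combination of replicate fold changes, kanamycin against none, normalised to wild type.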
Sequence,self-splicing fitness (ln) (30 °C),self-splicing fitness (ln) (37 °C)
UCCAAGCAAUAUUACGCAGU,-2.03 ± 0.082,-0.856 ± 0.093
CCGAAGCAAUAUUACGAAAA,-1.87 ± 0.26,-1.09 ± 0.27
AUUGAGCAAUAUUACGUGCU,-3.03 ± 0.24,-3.17 ± 0.35
GACGAGCAAUAUUACGCCGU,-2.58 ± 0.45,–
CAAUAGCAAUAUUACGCUAU,-2.69 ± 0.33,–
AUUAAGCAAUAUUACGUCGG,-2.34 ± 0.18,-1.2 ± 0.22
AAUAAGCAAUAUUACGCCGU,-1.24 ± 0.11,-0.293 ± 0.11
UAAGAGCAAUAUUACGCGUC,-3.81 ± 0.25,-2.29 ± 0.23
GGUCAGCAAUAUUACGGUAC,0.214 ± 0.15,0.298 ± 0.17
UUGGAGCAAUAUUACGAUCA,0.364 ± 0.35,-0.451 ± 0.45
ACCGAGCAAUAUUACGGCUU,-2.63 ± 0.12,-1.14 ± 0.13
AGGUAGCAAUAUUACGUUAG,-3.842 ± 0.029,-2.87 ± 0.042
CGUAAGCAAUAUUACGGUAA,-3.06 ± 0.28,-1.36 ± 0.17
CCCAAGCAAUAUUACGUGUA,-2.85 ± 0.096,-2.3 ± 0.11
AUCGAGCAAUAUUACGUCGU,-2.19 ± 0.13,-1.2 ± 0.14
ACUCAGCAAUAUUACGCUUA,-1.14 ± 0.14,-0.0124 ± 0.12
UUCCAGCAAUAUUACGGGGC,-3.09 ± 0.32,-2.82 ± 0.34
AGCAAGCAAUAUUACGAGGC,-4.52 ± 0.34,-2.51 ± 0.23
AUAUAGCAAUAUUACGUGCG,-0.942 ± 0.094,-0.942 ± 0.13
AAAUAGCAAUAUUACGCAAA,-2.3 ± 0.24,-1.66 ± 0.21
CUGUAGCAAUAUUACGAUCU,-3.56 ± 0.26,-2.05 ± 0.29
CGGCAGCAAUAUUACGCAUG,-2.27 ± 0.074,-1.05 ± 0.082
AGAAAGCAAUAUUACGGGCC,-1.66 ± 0.14,-1.04 ± 0.13
GAGCAGCAAUAUUACGACUA,-0.925 ± 0.097,0.275 ± 0.11

Sequence,self-splicing fitness (ln) (30 °C),self-splicing fitness (ln) (37 °C)
UCUUAGCAAUAUUACGUUGC,-3.46 ± 0.47,–
GUCAAGCAAUAUUACGUGUG,-2.69 ± 0.068,-1.61 ± 0.071
UCAAAGCAAUAUUACGUAGC,-4 ± 0.31,-2.52 ± 0.27
GUCGAGCAAUAUUACGCAAU,-1.08 ± 0.1,-0.467 ± 0.14
CCGCAGCAAUAUUACGGGUC,-3.86 ± 0.18,-2.69 ± 0.19
AUUAAGCAAUAUUACGAAGG,-3.82 ± 0.4,-2.5 ± 0.44
GGGCAGCAAUAUUACGCGUC,-2.55 ± 0.4,-1.71 ± 0.31
CAUCAGCAAUAUUACGGUAG,-0.362 ± 0.075,0.051 ± 0.085
AGGUAGCAAUAUUACGUCGA,-1.4 ± 0.016,-0.563 ± 0.033
AACUAGCAAUAUUACGCCCC,0.0551 ± 0.17,-0.32 ± 0.18
UGAAAGCAAUAUUACGUCGA,-0.893 ± 0.08,-0.374 ± 0.1
GCUUAGCAAUAUUACGAAUC,-0.244 ± 0.12,-0.0191 ± 0.15
UAAUAGCAAUAUUACGUCGA,-2.4 ± 0.17,-0.993 ± 0.16
GGGUAGCAAUAUUACGAACU,-0.832 ± 0.27,-0.534 ± 0.19
CAUGAGCAAUAUUACGUGCG,-1.75 ± 0.077,-0.908 ± 0.083
ACAGAGCAAUAUUACGCAUG,-2.9 ± 0.12,-1.95 ± 0.13
UACUAGCAAUAUUACGACGC,-2.01 ± 0.25,0.0923 ± 0.18
AGAGAGCAAUAUUACGCAAA,-2.1 ± 0.32,-2.69 ± 0.48
AUACAGCAAUAUUACGCCUC,-2.79 ± 0.2,-1.86 ± 0.17
CAAGAGCAAUAUUACGGUCC,-2.01 ± 0.35,-1.76 ± 0.33
UCGUAGCAAUAUUACGCAGU,-3.54 ± 0.39,-2.51 ± 0.28
UCUAAGCAAUAUUACGACUU,-3.9 ± 0.28,-3.44 ± 0.37
GACUAGCAAUAUUACGAGCA,-1.51 ± 0.14,-0.564 ± 0.13
CACAAGCAAUAUUACGAAUC,-4.04 ± 0.46,-2.37 ± 0.18
